The data set “SEC” deals with the molecule itself. Briefly: SEC. On the technique in general: SEC sorts molecules by how far they enter the pores of the column.
The data set “crystal structure” deals with the molecule itself. Briefly: crystal structure.

The term stoichiometry N denotes the number of molecules, sites or subunits per partner or assembly.

B1: CHUP1_611-1004 (CHUP1-C), C-terminal fragment of CHLOROPLAST UNUSUAL POSITIONING 1 (domain or fragment)
chain: ITATGDQSNESNESNEGKASENAATVTKMKLVDIEKRPPRVPRPPPRSAGGGKSTNLPSARPPLPGGGPPPPPPPPGGGPPPPPGGGPPPPPPPPGALGRGAGGGNKVHRAPELVEFYQSLMKRESKKEGAPSLISSGTGNSSAARNNMIGEIENRSTFLLAVKADVETQGDFVQSLATEVRASSFTDIEDLLAFVSWLDEELSFLVDERAVLKHFDWPEGKADALREAAFEYQDLMKLEKQVTSFVDDPNLSCEPALKKMYKLLEKVEQSVYALLRTRDMAISRYKEFGIPVDWLSDTGVVGKIKLSSVQLAKKYMKRVAYELDSVSGSDKDPNREFLLLQGVRFAFRVHQFAGGFDAESMKAFEELRSRAKTESGDNNNNNNNNSNEEESVN
As to B1, the “stoichiometry N” value in “SEC” is 2.

B2: CHUP1_716-982, C-terminal fragment of CHUP1 (domain or fragment)
chain: NKVHRAPELVEFYQSLMKRESKKEGAPSLISSGTGNSSAARNNMIGEIENRSTFLLAVKADVETQGDFVQSLATEVRASSFTDIEDLLAFVSWLDEELSFLVDERAVLKHFDWPEGKADALREAAFEYQDLMKLEKQVTSFVDDPNLSCEPALKKMYKLLEKVEQSVYALLRTRDMAISRYKEFGIPVDWLSDTGVVGKIKLSSVQLAKKYMKRVAYELDSVSGSDKDPNREFLLLQGVRFAFRVHQFAGGFDAESMKAFEELRSRA
Turning to B2, the binding result in “crystal structure” is listed as “binds”.

These data come from publication doi:10.1101/2020.01.14.905984 (bioRxiv, 2020).
